Measured values from patent publication US20110104667 (INFOSCITEX CORPORATION, published 2011).

Target: recombinant anthrax protective antigen (rPA) (UniProt P13423 P13423:30-764)
Assay: ELONA
Details: tags: MW about 83 kDa; label: 5' biotin

Chain of recombinant anthrax protective antigen (rPA) (P13423 30-764, one chain of several): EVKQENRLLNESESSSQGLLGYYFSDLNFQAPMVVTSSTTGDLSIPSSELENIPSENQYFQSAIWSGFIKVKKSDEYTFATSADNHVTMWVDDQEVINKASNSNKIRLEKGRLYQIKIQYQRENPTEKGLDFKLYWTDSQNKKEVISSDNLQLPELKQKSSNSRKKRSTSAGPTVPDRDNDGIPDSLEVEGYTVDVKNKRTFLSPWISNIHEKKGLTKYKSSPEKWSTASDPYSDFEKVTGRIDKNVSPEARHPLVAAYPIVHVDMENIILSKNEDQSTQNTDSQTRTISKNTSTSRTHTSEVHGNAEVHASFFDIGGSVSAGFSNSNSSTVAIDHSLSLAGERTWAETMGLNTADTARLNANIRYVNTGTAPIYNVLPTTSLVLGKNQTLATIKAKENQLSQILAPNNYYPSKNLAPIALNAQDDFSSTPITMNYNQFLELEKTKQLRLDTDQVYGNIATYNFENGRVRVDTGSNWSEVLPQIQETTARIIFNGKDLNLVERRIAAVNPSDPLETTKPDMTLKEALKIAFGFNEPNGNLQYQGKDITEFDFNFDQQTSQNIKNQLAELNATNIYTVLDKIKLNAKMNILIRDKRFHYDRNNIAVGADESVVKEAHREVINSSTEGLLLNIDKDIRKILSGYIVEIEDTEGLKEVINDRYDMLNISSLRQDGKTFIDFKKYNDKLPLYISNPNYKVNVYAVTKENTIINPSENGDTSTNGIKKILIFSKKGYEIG

B1: rPA DNA aptamer, biotinylated (ssDNA)
DNA: TACGACTCACTATAGGGATCCCGAGCTGCAATGGAGTGATTACTAGGGATGTGCGAGGCGCCGAATTCCCTTTAGTGAGGGTT
Does B1 bind?
Result: binds
